Paper PMC7939381 (2020)
Several values for one entry are separate records, joined by “and”; a condition that tells them apart may be missing. Identical values can stand only once. Like-named read-outs stand apart in the source and are kept apart here. One block for each binder: values may come before it. Primed or numbered codes have the meaning given here. Where no end group is shown, it is not given here. [ ]: non-standard residue; d: D form. The star is where a group is joined. PEG2′ = short PEG linker placed between the N-terminal FITC label and the peptide; FITC = O=C1OC2(c3ccc(O)cc3Oc3cc(O)ccc32)c2ccc(NC(=S)*)cc21; pT = C[C@@H](OP(=O)(O)O)[C@H](N)C(=O)O; pS = N[C@@H](COP(=O)(O)O)C(=O)O

B2: 14-3-3σ, full length, N-terminally His6-tagged (natural protein)
chain: MERASLIQKAKLAEQAERYEDMAAFMKGAVEKGEELSCEERNLLSVAYKNVVGGQRAAWRVLSSIEQKSNEEGSEEKGPEVREYREKVETELQGVCDTVLGLLDSHLIKEAGDAESRVFYLKMKGDYYRYLAEVATGDDKKRIIDSARSAYQEAMDISKKEMPPTNPIRLGLALNFSVFHYEIANSPEEAISLAKTTFDEAMADLHTLSEDSYKDSTLIMQLLRDNLTLWTADNAGEEGGEAPQEPQS
B10: 14-3-3η, full length, N-terminally His6-tagged (natural protein)
chain: MGDREQLLQRARLAEQAERYDDMASAMKAVTELNEPLSNEDRNLLSVAYKNVVGARRSSWRVISSIEQKTMADGNEKKLEKVKAYREKIEKELETVCNDVLSLLDKFLIKNCNDFQYESKVFYLKMKGDYYRYLAEVASGEKKNSVVEASEAAYKEAFEISKEQMQPTHPIRLGLALNFSVFYYEIQNAPEQACLLAKQAFDDAIAELDTLNEDSYKDSTLIMQLLRDNLTLWTSDQQDEEAGEGN
B11: 14-3-3β/α, full length, N-terminally His6-tagged (natural protein)
chain: MTMDKSELVQKAKLAEQAERYDDMAAAMKAVTEQGHELSNEERNLLSVAYKNVVGARRSSWRVISSIEQKTERNEKKQQMGKEYREKIEAELQDICNDVLELLDKYLIPNATQPESKVFYLKMKGDYFRYLSEVASGDNKQTTVSNSQQAYQEAFEISKKEMQPTHPIRLGLALNFSVFYYEILNSPEKACSLAKTAFDEAIAELDTLNEESYKDSTLIMQLLRDNLTLWTSENQGDEGDAGEGEN

What was measured:
[1] = target: B10; test: FP
[2] = target: B2; test: FP
[3] = target: B11; test: FP
[4] = target: B10; test: FP
[5] = target: peptide 13; test: FP
[6] = target: B11; test: FP
[7] = target: T1, 14-3-3θ, full length, N-terminally His6-tagged (human, UniProt P27348 1-245); test: FP
T1 chain: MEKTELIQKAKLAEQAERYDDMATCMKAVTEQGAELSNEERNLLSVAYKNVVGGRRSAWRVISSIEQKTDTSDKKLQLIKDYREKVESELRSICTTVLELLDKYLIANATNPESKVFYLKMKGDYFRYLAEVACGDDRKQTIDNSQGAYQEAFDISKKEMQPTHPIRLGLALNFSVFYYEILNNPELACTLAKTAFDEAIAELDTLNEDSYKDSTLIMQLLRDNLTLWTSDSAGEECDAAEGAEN

[8] = target: T2, 14-3-3ε, full length, N-terminally His6-tagged (human, UniProt P62258 1-255); test: FP
T2 chain: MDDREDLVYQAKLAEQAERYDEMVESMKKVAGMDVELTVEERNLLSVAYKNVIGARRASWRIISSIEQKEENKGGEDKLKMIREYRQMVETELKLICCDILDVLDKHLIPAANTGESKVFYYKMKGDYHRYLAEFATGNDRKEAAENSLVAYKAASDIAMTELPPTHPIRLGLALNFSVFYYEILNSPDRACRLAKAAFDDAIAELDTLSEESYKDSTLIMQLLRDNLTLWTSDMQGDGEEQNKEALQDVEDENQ

[9] = target: B2; test: FP
[10] = target: B11; test: FP
[11] = target: T3, 14-3-3γ, full length, N-terminally His6-tagged (human, UniProt P61981 1-247); test: FP
T3 chain: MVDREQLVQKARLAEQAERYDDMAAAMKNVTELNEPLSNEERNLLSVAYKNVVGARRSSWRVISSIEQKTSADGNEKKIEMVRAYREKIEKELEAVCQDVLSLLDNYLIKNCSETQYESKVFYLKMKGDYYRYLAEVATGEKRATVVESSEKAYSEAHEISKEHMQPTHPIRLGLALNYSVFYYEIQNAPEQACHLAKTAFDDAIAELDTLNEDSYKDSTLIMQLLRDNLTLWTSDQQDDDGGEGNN

[12] = target: T4, 14-3-3ζ, full length, N-terminally His6-tagged (human, UniProt P63104 1-245); test: FP
T4 chain: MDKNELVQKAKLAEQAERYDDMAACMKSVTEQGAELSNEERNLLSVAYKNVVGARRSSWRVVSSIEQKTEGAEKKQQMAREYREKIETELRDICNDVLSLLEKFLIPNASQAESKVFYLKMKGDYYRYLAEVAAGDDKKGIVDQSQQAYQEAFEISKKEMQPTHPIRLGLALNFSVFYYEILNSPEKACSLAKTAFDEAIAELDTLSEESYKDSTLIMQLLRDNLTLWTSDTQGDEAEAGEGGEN

[13] = target: B10; test: FP
[14] = target: B10; test: ITC
[15] = target: B10; test: ITC; replicate A
[16] = target: B10; test: ITC; replicate B
[17] = target: peptide 13; test: FP; remark: listed apart in the source

Binder: B2
Kd [5]: > 167 µM

B3: fluorescently labeled peptide 7, APN 36–73 pSer43 (peptide)
peptide: EKNKNAN[pS]SPVASTTPSASATTNPASATTLDQSKAWNR
modifications: not fully specified (N-terminus); also: FITC via PEG2 linker, site not given here
Kd [2]: > 167 µM
Kd [3]: 60 µM

B5: fluorescently labeled peptide 8, APN 36–73, bis-phosphorylated (peptide)
peptide: {FITC-PEG2′}-EKNKNAN[pS]SPVASTTPSASATTNPASATTLDQSKAWNR
modifications: also: second phosphorylated Ser/Thr, site not given here
Kd [1]: 18 µM
Kd [2]: > 167 µM
Kd [3]: 32 µM
Kd [4]: 18 µM

B6: fluorescently labeled peptide 9, APN 36–73, bis-phosphorylated (peptide)
peptide: {FITC-PEG2′}-EKNKNAN[pS]SPVASTTPSASATTNPASATTLDQSKAWNR
modifications: also: second phosphorylated Ser/Thr, site not given here
Kd [1]: 15 µM
Kd [2]: > 167 µM
Kd [3]: 23 µM
Kd [4]: 15 µM

B7: FITC-labeled peptide 1, APN 38–46 pSer43 (peptide)
peptide: {FITC-PEG2′}-NKNAN[pS]SPV
Kd [2]: 3.5 µM
Kd [3]: 0.71 µM
Kd [7]: 2 µM
Kd [8]: 1.1 µM
Kd [9]: 3.9 µM
Kd [10]: 0.7 µM
Kd [11]: 1.16 µM
Kd [12]: 1.2 µM
Kd [13]: 0.21 µM

Binder: B10
Kd [17]: > 83 µM
Kd [5]: > 83 µM

Binder: B11
Kd [5]: > 167 µM

B14: fluorescently labeled peptide 10, APN 36–73, bis-phosphorylated (peptide)
peptide: {FITC-PEG2′}-EKNKNAN[pS]SPVASTTPSASATTNPASATTLDQSKAWNR
modifications: also: second phosphorylation within Ser61–Thr64, site not given here
Kd [1]: 0.42 µM
Kd [2]: 6.6 µM
Kd [3]: 0.88 µM
Kd [4]: 0.42 µM

Second part, the binder after the results:

Kd [1]: 0.18 µM
Kd [2]: 4.1 µM
Kd [3]: 0.45 µM
Kd [4]: 0.18 µM
B1: fluorescently labeled peptide 12, APN 36–73, bis-phosphorylated (peptide)
peptide: {FITC-PEG2′}-EKNKNAN[pS]SPVASTTPSASATTNPASATTLDQSKAWNR
modifications: also: second phosphorylation within Ser61–Thr64, site not given here

Kd [6]: > 167 µM
Kd [1]: 70 µM
B4: peptide 14, monophosphorylated APN 9-mer (noncanonical site of peptide 10) (peptide)
chain: TTNPASATT
modifications: also: one phosphorylated Ser/Thr within Ser61–Thr64

Ka [14]: 403000 M⁻¹ and 488000 M⁻¹ and 497000 M⁻¹
Kd [15]: 2.48 µM
Kd [16]: 2.01 µM
B8: peptide 1, APN 38–46 pSer43, as used in ITC (peptide)
peptide: NKNAN[pS]SPV

Kd [2]: 1.8 µM
Kd [3]: 0.11 µM
B9: fluorescently labeled peptide 11, APN 36–73 pSer43 pThr63 (peptide)
peptide: EKNKNAN[pS]SPVASTTPSASATTNPASA[pT]TLDQSKAWNR
modifications: not fully specified (N-terminus); also: FITC via PEG2 linker, site not given here

Kd [6]: 45 µM
B12: peptide 15, monophosphorylated APN 9-mer pThr63 (site 2) (peptide)
chain: NPASA[pT]TLD

Kd [6]: > 333 µM
Kd [1]: > 167 µM
B13: peptide 16, monophosphorylated APN 9-mer (noncanonical site of peptide 12) (peptide)
chain: PASATTLDQ
modifications: also: one phosphorylated Ser/Thr within Ser61–Thr64
